The values below come from publication PMC12866179, “Oxidized MIF is an Alzheimer’s disease drug target relaying external risk factors to tau pathology” (Cell Reports Medicine, 2025).

This assay deals with T1, recombinant human wild-type macrophage migration inhibitory factor (MIF) (human), P14174.
T1 chain: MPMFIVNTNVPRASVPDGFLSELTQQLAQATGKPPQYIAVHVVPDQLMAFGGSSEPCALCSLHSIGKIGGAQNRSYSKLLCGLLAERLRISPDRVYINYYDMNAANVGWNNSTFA
Kind of assay: SEC-MALS; 100 uM MIF (WT or C80W) in 20 mM phosphate buffer, with or without 100 uM PAV-174; TSKgel G2000SWXL, 0.5 mL/min, 25 C; UV 280 nm and miniDawn Treos light scattering. The settings on record: remark: other sources report otherwise. (In general: In gel filtration, larger molecules generally elute earlier.)

What is called stoichiometry N is a count of units in the complex or per binding partner.

B1: recombinant human wild-type macrophage migration inhibitory factor (MIF), P14174 1-115 (natural protein)
chain: MPMFIVNTNVPRASVPDGFLSELTQQLAQATGKPPQYIAVHVVPDQLMAFGGSSEPCALCSLHSIGKIGGAQNRSYSKLLCGLLAERLRISPDRVYINYYDMNAANVGWNNSTFA
With B1, the stoichiometry N came to 3.
